Reference: US20180340159

Biological target: T1, propeptide of Rhizomucor miehei lipase (RmL)
T1 chain: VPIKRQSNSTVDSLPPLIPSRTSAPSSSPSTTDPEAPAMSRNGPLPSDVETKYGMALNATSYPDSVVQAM

B1: Rhizomucor miehei lipase (RmL) wild type mature protein (protein)
chain: SIDGGIRAATSQEINELTYYTTLSANSYCRTVIPGATWDCIHCDATEDLKIIKTWSTLIYDTNAMVARGDSEKTIYIVFRGSSSIRNWIADLTFVPVSYPPVSGTKVHKGFLDSYGEVQNELVATVLDQFKQYPSYKVAVTGHSLGGATALLCALDLYQREEGLSSSNLFLYTQGQPRVGDPAFANYVVSTGIPYRRTVNERDIVPHLPPAAFGFLHAGEEYWITDNSPETVQVCTSDLETSDCSNSIVPFTSVLDHLSYFGINTGLCT
lipase hydrolytic activity (4-MU oleate), average slope; incubated with 5 µM TCEP: 22 RFU/sec | lipase hydrolytic activity (4-MU oleate), average slope; incubated with 5 uM TCEP + Model B: 66 RFU/sec | lipase hydrolytic activity (4-MU oleate), average slope; incubated with 1.35% Savinase + Model B: 143 RFU/sec | lipase hydrolytic activity (4-MU oleate), average slope; incubated with 2% NaSO2: 28 RFU/sec | lipase hydrolytic activity (4-MU oleate), average slope; incubated with 2% NaSO2 + Model B: 66 RFU/sec
